Data set [1] concerns ribosomal protein S6 (in purified 40S ribosomal subunits from liver).
Data set [2] relates to synthetic peptide representing C-terminus of S6 protein.

For the substance “recombinant p70α^S6k (Flag-tag or EE-tag version, expressed in HEK293 cells)”, the “in vitro kinase reaction: phosphorylation of S6 protein in 40S subunits” value in data set [1] was “p70β^S6k (p70β-II isoform) phosphorylates the S6 protein in vitro nearly as efficiently as p70α^S6k”. For the same substance, the “in vitro kinase reaction: phosphorylation of the synthetic peptide” value in data set [2] was “also phosphorylates this peptide but with slightly lower efficiency than observed with p70α^S6k”.

The values above are taken from patent US20050158748.
